Experiment [1] concerns the target Actin of the thin filament in human ventricular myocytes (human (endogenous in ventricular myocytes)) (UniProt P68032). Nature of the experiment: autocorrelation function of fluctuations of fluorescence anisotropy (confocal, about 6 molecules); in situ, A-band of isolated EDC-cross-linked myocytes from failing human left ventricles, isometric contraction in contracting solution (5 mM ATP, 0.1 mM CaCl2, pH 7.5); 20 s records, time resolution 10 ms; three-state fit. For orientation: Polarisation of emitted light reports the rotation of a fluorescent probe.

Experiment [2] has the same target. Description: autocorrelation function of fluctuations of fluorescence anisotropy (confocal, about 6 molecules); in situ, A-band of isolated EDC-cross-linked myocytes from failing human right ventricles, isometric contraction in contracting solution (5 mM ATP, 0.1 mM CaCl2, pH 7.5); 20 s records, time resolution 10 ms; three-state fit.

“Ventricular myosin cross-bridge carrying the exchanged fluorescent LC (from UniProt P12883 1-1935; P05976 1-194; P10916 1-166) (complex)”: the k (DISS) (rate of dissociation of the cross-bridge from the thin filament during contraction) in experiment [1] is 2.24; in experiment [2], 2.36.
